From publication PMC3082182 (The Journal of Cell Biology, 2011) come the findings set out here.

This assay deals with GST–FL Rngo (Drosophila melanogaster, UniProt Q9VXF9 1-458). In words: pull-down.

B1: FL MBP-Rpn10 (natural protein)
chain: MVLESTMICFDNSDFQRNGDYFPTRLIVQRDGINLVCLTKLRSNPENNVGLMTLSNTVEVLATLTSDAGRIFSKMHLVQPKGEINLLTGIRIAHLVLKHRQGKNHKMRIVVFVGSPINHEEGDLVKQAKRLKKEKVNVDIVSFGDHGNNNEILTAFINALNGKDGTGSHLVSVPRGSVLSDALLSSPIIQGEDGMGGAGLGGNVFEFGVDPNEDPELALALRVSMEEQRQRQESEQRRANPDGAPPTGGDAGGGGGVSGSGPGNEESAGAENEANTEEAMLQRALALSTETPEDNLPDFANMTEEEQIAFAMQMSMQDAPDDSVTQQAKRPKTDEANAPMDVDEDYSEVIGDPAFLQSVLENLPGVDPQSEAVRDAVGSLNKDKDKKSDGKDSQKK
With B1, the binding result is recorded as “binds”.
